According to patent publication US20220241314A1, “COMPOSITIONS AND METHODS FOR TREATMENT OF HEPATITIS B VIRUS INFECTION” (priority 2019, published 2022):
{ppp} = triphosphate

Assays:
IRF3 = assay: Innate immune activation in primary human hepatocytes (immunoblot, RT-qPCR); type: cell-based; conditions: PHH, 24 and 72 hours
Experimental: (§1) FIGS. 7A-7C illustrate suppression of cccDNA in primary human hepatocytes. (7A) PHH were cultured alone or were treated with 100 ng/ml X-RNA (X100), or 50 ng/ml (P50), 100 ng/ml (P100) or 200 ng/ml (P200) poly-U/UC PAMP or were infected with SenV (control) and harvested 24 and 72 hours later. The cell lysates were analyzed by immunoblot for p-IRF3 (S386 phosphorylated, active IRF3), IRF3 (total IRF3), IFIT1, and Actin (control) using respective antibodies. (7B) PHH cultures were cultured alone or were treated with 100 ng/ml X-RNA (X100), or 100 ng/ml (P100) or 200 ng/ml (P200) poly-U/UC PAMP or were infected with SenV (control) and harvested 24 and 72 later. Cells were harvested, RNA extracted and analyzed by RT-qPCR to measure the expression levels of the indicated innate immune genes normalized to the level of GAPDH expression. Values are shown on the heat map as mean fold induction over nontreated cells from three independent experiments. (7C) PHH cultures were inoculated with HBV at moi of 200 Geq/cell. […] Three days later the cells were harvested, DNA isolated by isolated Hirt extraction, and analyzed by Southern blot using a HBV-specific probe. […]
(§2) PHH cultures were treated over a poly-U/UC PAMP dose-response and assessed innate immune activation. […]

HBV cccDNA = assay: cccDNA levels in HBV-infected primary human hepatocytes (Southern blot); type: cell-based, HBV (Genotype D); conditions: PHH, HBV 200 Geq/cell, single treatment at 1 dpi, harvested 3 dpi
Experimental: as §1, §2

B1: poly-U/UC PAMP: ~100 nt PAMP motif from the HCV genome comprising 5′ppp and the poly U/UC region, recognized by RIG-I; formulated in liposome (nucleic acid)
chain: GGCCAUCCUGUUUUUUUCCCUUUUUUUUUUUCUUUUUUUUUUUUUUUUUUUUUUUUUUUUUUUUUUCUCCUUUUUUUUUCCUCUUUUUUUCCUUUUCUUUCCUUU
modifications: RNA, 5' {ppp}, backbone and methylation of C not given here; formulated in liposome
notes: ~100 nt PAMP motif from the HCV genome comprising 5′ppp and the poly U/UC region, recognized by RIG-I; formulated in liposome
innate immune gene expression (RT-qPCR) (IRF3): robustly induced innate immune gene expression
IRF3 activation (phosphoserine 386 IRF3) and IFIT1 expression (IRF3; poly-U/UC PAMP 50-200 ng/ml, X-RNA 100 ng/ml): induced IRF3 activation
cccDNA levels (HBV cccDNA): suppressed cccDNA levels in the infected PHH to levels similar to CsA treatment
